Here are results for one protein from publication PMC3020801, “A new lysozyme from the eastern oyster, Crassostrea virginica, and a possible evolutionary pathway for i-type lysozymes in bivalves from host defense to digestion” (BMC Evolutionary Biology, 2010).

The data set concerns the molecule itself. Nature of the data set: SDS-PAGE under non-reducing conditions; 12.5% acrylamide/bis gel, reduced and non-reduced conditions, Coomassie blue R-250; a second band of >100 kDa only under non-reduced conditions.

B1: cv-lysozyme 3 (enzyme, Crassostrea virginica)
chain: SDAPCTNSGGVCQDDHLACHNGHYQSGLCTGGAHRRCCLTSASHTGSFSTGIVSQQCLQCICNVESGCKAIGCHFDVNSDSCGYFQIKEGYWHDCGSPGSSWRSCANDLACASKCVQAYMSRYIGFSGCSHSCESYARIHNGGPAGCKHTNTLGYWSHVHAQGCSHNS
notes: cv-lysozyme 3, Crassostrea virginica, tryptic peptide 1-35 of the purified protein; numbers count on: the mature protein; cv-lysozyme 3, tryptic peptide 37-69; cv-lysozyme 3, tryptic peptide 70-88; cv-lysozyme 3, tryptic peptide 89-103; cv-lysozyme 3, tryptic peptide 104-114; cv-lysozyme 3, tryptic peptide 115-122; cv-lysozyme 3, tryptic peptide 123-138; cv-lysozyme 3, tryptic peptide 139-148; …
In the case of B1, the binding result is recorded as “binds”.
